In the supplement of paper PMC10567573 one finds protein stability index data, which are given here for 29 sequences.

± gives the standard deviation.

This data set in a line: protein stability index of a GFP-peptide fusion (GPS, HEK-293T) (PSI 1-6); higher = more stable. As to conditions: c terminus: a fixed tail appended.
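Further: 24-mer peptide tiles fused after GFP, lentivirally expressed, FACS-sorted into six equal bins by GFP/DsRed ratio, decoded by Illumina sequencing, PSI is the read-weighted mean bin number.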

Consider SSASEGDEDLRRQMQDDEQKTRLL [PALM], for which the protein stability index (treatment: DMSO) was found to be 5.51 ± 0.15 and the protein stability index (treatment: MLN4924 1 uM, 8 h) was 5.49 ± 0.19.

As for YSDKNAKLTKESYPVVVAESMYGD [TENT5D], the protein stability index worked out at 4.39 ± 0.054 (treatment: DMSO) and 4.43 ± 0.22 (treatment: MLN4924 1 uM, 8 h).

For the sequence SPSSDLDTDAEGDDFELLDQSELS [RETREG3], the protein stability index reads like this: (treatment: DMSO) 5.56 ± 0.13; (treatment: MLN4924 1 uM, 8 h) 5.38 ± 0.12.

Take RFFIDFPHIEEQQKKIESYLHNHF [TENT5D]: the protein stability index (treatment: DMSO) worked out at 2.13 ± 0.38 and the protein stability index (treatment: MLN4924 1 uM, 8 h) came to 2.35 ± 0.18.

Take QRTAKGKPVLAKDSSNPYPNFNFN [AASDHPPT]: the protein stability index (treatment: DMSO) was 3.43 ± 0.45 and the protein stability index (treatment: MLN4924 1 uM, 8 h) is 3.74 ± 0.15.

Regarding PNDEVHPLLGVKGDGKSKKKQAGR [RBBP5], the protein stability index (treatment: DMSO) turned out to be 5.35 ± 0.27 and the protein stability index (treatment: MLN4924 1 uM, 8 h) was 5.2 ± 0.35.

ADPMDWSPSNVQKWLLWTEHQYRL [SPDEF] came in with a protein stability index (treatment: DMSO) of 2.47 ± 0.21 and a protein stability index (treatment: MLN4924 1 uM, 8 h) of 2.43 ± 0.35.

As to ITLDGGVLVHVQKWDGKSTTIKRK [FABP4], the protein stability index was 2.46 ± 0.38 (treatment: DMSO) and 3.06 ± 0.1 (treatment: MLN4924 1 uM, 8 h).

Turning to AAMEGATLDQTTSEEAPGGTELIQ [HDAC6], the protein stability index stood at 5.64 ± 0.12 (treatment: DMSO) and 5.47 ± 0.22 (treatment: MLN4924 1 uM, 8 h).

With AFQLLRRFVQAEGRRATLQRLVEA [TRADD], the protein stability index is, setting by setting: (treatment: DMSO) 2.19 ± 0.15; (treatment: MLN4924 1 uM, 8 h) 2.26 ± 0.38.

In turn, MAERLEDSVLKGMQAASSKMVSAE [SDE2] had a protein stability index (treatment: DMSO) of 4.54 ± 0.36 and a protein stability index (treatment: MLN4924 1 uM, 8 h) of 4.55 ± 0.24.

For the sequence LSRQEFLGMVGLFGTIISGIQLLI [SLC35F2], the protein stability index by setting is: (treatment: DMSO) 2.28 ± 0.25; (treatment: MLN4924 1 uM, 8 h) 2.09 ± 0.33.

For GLEEADAEVSVISEADPQALLQAM [FBF1], the protein stability index is, setting by setting: (treatment: DMSO) 5.06 ± 0.26; (treatment: MLN4924 1 uM, 8 h) 5.05 ± 0.15.

For VYLHGDDHQDSDEFCRNTLCAPEV [FAF2], the protein stability index (treatment: DMSO) was determined as 4.13 ± 0.22 and the protein stability index (treatment: MLN4924 1 uM, 8 h) stood at 4.23 ± 0.15.

In the case of LYSRTGDIVEFVCKSGYHPTKSHS [CFHR2], the protein stability index runs as follows: (treatment: DMSO) 2.15 ± 0.16; (treatment: MLN4924 1 uM, 8 h) 2.45 ± 0.4.

As for ITWIAGAVTKDFKLTDKHETVVSY [ACSBG2], the protein stability index is, setting by setting: (treatment: DMSO) 2.3 ± 0.25; (treatment: MLN4924 1 uM, 8 h) 2.03 ± 0.33.

For the sequence LWGRTQEEAEELAKEMSVPFYTSR [GFOD1], the protein stability index by setting is: (treatment: DMSO) 3.4 ± 0.18; (treatment: MLN4924 1 uM, 8 h) 3.61 ± 0.32.

ETLQPSVWFGGREHVLMFAKLALY [TMEM175]: the protein stability index was found to be 2.52 ± 0.46 (treatment: DMSO) and 2.44 ± 0.43 (treatment: MLN4924 1 uM, 8 h).

On to EQKLRACLEGSINEHSAHCPHTPE [RPAIN], for which the protein stability index by setting is: (treatment: DMSO) 4.92 ± 0.28; (treatment: MLN4924 1 uM, 8 h) 4.99 ± 0.23.

Consider QTFQWVKLPATMPEPVYFHCAAVT [KLHDC10], for which the protein stability index was 2.28 ± 0.36 (treatment: DMSO) and 2.33 ± 0.39 (treatment: MLN4924 1 uM, 8 h).

For the sequence FLLLIVFYTAITKKIFKSHLKSSR [P2RY14], the protein stability index amounted to 2.69 ± 0.42 (treatment: DMSO) and 2.52 ± 0.65 (treatment: MLN4924 1 uM, 8 h).

As for THSSVVLQGFDQLRLEGLLCDVTL [KLHL13], the protein stability index (treatment: DMSO) is 2.43 ± 0.33 and the protein stability index (treatment: MLN4924 1 uM, 8 h) is 2.19 ± 0.19.

As to IYDLNIPAFVKFAYVAEREDELSL [NCK2], the protein stability index runs as follows: (treatment: DMSO) 2.25 ± 0.39; (treatment: MLN4924 1 uM, 8 h) 2.51 ± 0.2.

Consider RGGGAAGAGGGGSGAGGGSGGSGG [KLHDC10], for which the protein stability index is, setting by setting: (treatment: DMSO) 5.2 ± 0.66; (treatment: MLN4924 1 uM, 8 h) 4.89 ± 0.48.

The sequence ADDPTSGFSSIPDAFWWAVVTMTT [KCNA3] came in with a protein stability index (treatment: DMSO) of 2.94 ± 0.92 and a protein stability index (treatment: MLN4924 1 uM, 8 h) of 2.6 ± 0.4.

KLFAHSSDLLSEFKKHDADKVGLI [PPEF2]: the protein stability index was 2.63 ± 0.3 (treatment: DMSO) and 2.68 ± 0.38 (treatment: MLN4924 1 uM, 8 h).

Regarding GTAGDSMSYHSGSVFSARDRDPNS [TNXB], the protein stability index (treatment: DMSO) is 4.66 ± 0.18 and the protein stability index (treatment: MLN4924 1 uM, 8 h) stood at 4.87 ± 0.14.

Take TSFQWVTKWVDYSNKYGFGYQLSD [PLK2]: the protein stability index was 2.06 ± 0.57 (treatment: DMSO) and 2.08 ± 0.31 (treatment: MLN4924 1 uM, 8 h).

Take SMCEHHLVPFVGKVHIGYLPNKQV [GCH1]: the protein stability index came out at 2.16 ± 0.38 (treatment: DMSO) and 2.29 ± 0.39 (treatment: MLN4924 1 uM, 8 h).
